We go through one substance from paper PMC12402178.

Test [1] deals with microtubules polymerised from porcine brain tubulin (GMPCPP-stabilised seeds, dynamic GDP lattice, or taxol-stabilised) (porcine) (UniProt P02550). Nature of the test: FRAP (TIRF microscopy); anillin-GFP bleached on single GMPCPP microtubules; single exponential fit, median of fits.
For test [2] the target is unchanged. Nature of the test: FRAP (TIRF microscopy); anillin-GFP bleached on single GDP (dynamic) microtubules; single exponential fit, median of fits; 26 C.

Anillin-GFP (full-length human anillin, isoform 2, 1087 amino acids), sequence (Q9NQW6 other isoform, or with tags, fused parts or gaps): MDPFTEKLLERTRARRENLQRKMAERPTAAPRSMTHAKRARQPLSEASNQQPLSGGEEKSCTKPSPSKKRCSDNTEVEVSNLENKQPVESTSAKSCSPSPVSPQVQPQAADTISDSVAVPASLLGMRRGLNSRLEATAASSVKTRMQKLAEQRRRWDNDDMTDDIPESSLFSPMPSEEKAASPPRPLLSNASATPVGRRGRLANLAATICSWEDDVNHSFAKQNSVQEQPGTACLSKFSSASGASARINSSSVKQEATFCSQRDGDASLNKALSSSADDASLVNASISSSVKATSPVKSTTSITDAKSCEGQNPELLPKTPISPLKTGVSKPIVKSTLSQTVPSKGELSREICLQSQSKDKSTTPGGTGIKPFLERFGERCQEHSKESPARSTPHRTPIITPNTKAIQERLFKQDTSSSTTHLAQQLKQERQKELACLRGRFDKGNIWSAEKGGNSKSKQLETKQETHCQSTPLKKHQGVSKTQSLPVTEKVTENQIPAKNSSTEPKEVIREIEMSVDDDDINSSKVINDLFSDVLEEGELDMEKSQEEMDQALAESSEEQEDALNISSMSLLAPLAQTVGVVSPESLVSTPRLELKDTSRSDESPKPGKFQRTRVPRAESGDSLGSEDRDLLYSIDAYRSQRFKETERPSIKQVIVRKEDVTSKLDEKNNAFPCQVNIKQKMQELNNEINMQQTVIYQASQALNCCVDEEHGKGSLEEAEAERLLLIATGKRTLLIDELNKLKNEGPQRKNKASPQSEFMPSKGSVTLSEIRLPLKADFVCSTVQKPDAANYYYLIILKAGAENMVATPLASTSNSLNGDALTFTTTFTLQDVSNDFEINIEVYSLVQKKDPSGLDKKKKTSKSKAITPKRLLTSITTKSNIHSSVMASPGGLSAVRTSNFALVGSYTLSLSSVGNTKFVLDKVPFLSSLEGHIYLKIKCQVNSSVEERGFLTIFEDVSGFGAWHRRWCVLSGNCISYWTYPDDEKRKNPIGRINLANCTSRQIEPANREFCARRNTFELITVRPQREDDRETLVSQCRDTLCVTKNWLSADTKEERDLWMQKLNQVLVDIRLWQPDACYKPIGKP

In general, koff refers to the first-order rate constant of dissociation. For the substance “Anillin-GFP (full-length human anillin, isoform 2, 1087 amino acids) (from UniProt Q9NQW6-2 1-1087) (natural protein)”, the koff in test [1] came out at 0.26 s⁻¹; in test [2], 1.07 s⁻¹.
